We go through 18 molecules from US20030068675, “Position dependent recognition of GNN nucleotide triplets by zinc fingers” (published 2003).

Common to all, as to assay: EMSA
What all share (conditions): tags: MBP fusion

In one data set the target is T1, ZFP SBS#431 (synthetic).
T1 chain: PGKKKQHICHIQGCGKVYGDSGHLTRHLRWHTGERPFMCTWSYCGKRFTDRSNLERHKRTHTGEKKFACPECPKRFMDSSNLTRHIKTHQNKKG
The method in brief: (§1)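 Purified ZFP was titrated against labeled double-stranded target (1 nM or lower, at least 10-fold below expected Kd) carrying the natural binding site with flanks. Binding buffer was 10 mM Tris pH 7.5, 100 mM KCl, 1 mM MgCl2, 0.1 mM ZnCl2, 5 mM DTT, 10% glycerol, 0.02% BSA, with equilibration for at least 45 min. Bound and free target were separated on a 10% polyacrylamide gel.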

For another data set, the target named is T2, ZFP SBS#760 (synthetic).
T2 chain: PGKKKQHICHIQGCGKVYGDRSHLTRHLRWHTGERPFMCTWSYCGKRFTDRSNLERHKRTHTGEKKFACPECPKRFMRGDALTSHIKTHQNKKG
The method in brief:
as §1

In a further data set the target is T3, ZFP SBS#759 (synthetic).
T3 chain: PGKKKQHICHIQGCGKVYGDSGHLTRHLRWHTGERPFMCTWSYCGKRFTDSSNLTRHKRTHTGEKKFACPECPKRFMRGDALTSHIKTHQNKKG
The method in brief:
as §1

The target in the next data set is T4, ZFP SBS#749 (synthetic).
T4 chain: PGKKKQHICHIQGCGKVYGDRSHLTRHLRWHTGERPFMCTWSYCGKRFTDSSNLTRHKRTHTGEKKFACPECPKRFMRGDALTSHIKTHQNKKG
The method in brief: as §1

The target in a further data set is T5, ZFP SBS#748 (synthetic).
T5 chain: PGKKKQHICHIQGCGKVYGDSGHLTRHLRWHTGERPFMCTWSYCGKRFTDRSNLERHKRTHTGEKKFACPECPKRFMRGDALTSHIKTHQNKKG
In outline:
as §1

A further data set has as its target T6, ZFP SBS#777 (synthetic).
T6 chain: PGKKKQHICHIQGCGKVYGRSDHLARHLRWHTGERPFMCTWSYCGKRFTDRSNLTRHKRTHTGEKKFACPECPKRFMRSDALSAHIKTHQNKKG
The method in brief: as §1

For a further data set, the target named is T7, ZFP SBS#776 (synthetic).
T7 chain: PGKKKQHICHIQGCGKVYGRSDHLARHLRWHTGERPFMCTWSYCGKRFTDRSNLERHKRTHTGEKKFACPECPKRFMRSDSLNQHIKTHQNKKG
The method in brief:
as §1

Another data set addresses ZFP SBS#780 (synthetic). In outline:
as §1

Another data set deals with ZFP SBS#779 (synthetic). In outline:
as §1

In another data set the target is ZFP SBS#916 (synthetic). The method in brief:
as §1

A further data set concerns the target T8, ZFP SBS#256 (synthetic).
T8 chain: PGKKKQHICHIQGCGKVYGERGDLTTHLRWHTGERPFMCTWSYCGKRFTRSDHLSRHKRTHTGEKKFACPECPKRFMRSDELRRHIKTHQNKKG
In outline: as §1

Another data set deals with ZFP SBS#785 (synthetic). In outline: as §1
The target in another data set is ZFP SBS#783 (synthetic). The method in brief:
as §1

The target in the next data set is ZFP SBS#786 (synthetic). In outline: as §1
For another data set, the target named is ZFP SBS#915 (synthetic). In outline:
as §1

The next data set has as its target ZFP SBS#914 (synthetic). The method in brief:
as §1

For another data set, the target named is T9, ZFP SBS#826 (synthetic).
T9 chain: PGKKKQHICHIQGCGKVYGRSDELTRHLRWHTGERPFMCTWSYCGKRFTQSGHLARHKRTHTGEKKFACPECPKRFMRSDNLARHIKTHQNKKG
In outline: as §1

The target in the next data set is ZFP SBS#750 (synthetic). In outline:
as §1

In the next data set the target is T10, ZFP SBS#827 (synthetic).
T10 chain: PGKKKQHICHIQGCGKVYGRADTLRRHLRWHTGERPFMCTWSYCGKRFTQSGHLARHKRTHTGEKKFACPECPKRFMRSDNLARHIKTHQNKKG
In outline:
as §1

Another data set addresses ZFP SBS#909 (synthetic). In outline: as §1
For a further data set, the target named is ZFP SBS#920 (synthetic). In outline:
as §1

For the next data set, the target named is ZFP SBS#904 (synthetic). The method in brief:
as §1

The target in the next data set is ZFP SBS#921 (synthetic). In outline: as §1
The next data set deals with T11, ZFP SBS#922 (synthetic).
T11 chain: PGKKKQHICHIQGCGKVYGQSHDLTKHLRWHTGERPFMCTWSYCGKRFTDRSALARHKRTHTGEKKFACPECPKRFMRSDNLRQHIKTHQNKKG
The method in brief:
as §1

Another data set deals with ZFP SBS#923 (synthetic). In outline:
as §1

The next data set has as its target T12, ZFP SBS#908 (synthetic).
T12 chain: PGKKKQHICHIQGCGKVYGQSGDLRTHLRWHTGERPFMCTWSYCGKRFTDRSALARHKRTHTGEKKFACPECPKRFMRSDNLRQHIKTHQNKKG
The method in brief: as §1

The next data set deals with T13, ZFP SBS#912 (synthetic).
T13 chain: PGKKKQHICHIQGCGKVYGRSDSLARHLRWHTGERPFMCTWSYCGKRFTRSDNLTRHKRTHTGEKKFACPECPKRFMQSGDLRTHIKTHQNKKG
The method in brief: as §1

In a further data set the target is ZFP SBS#781 (synthetic, UniProt P08047). In outline: as §1
The next data set deals with T14, ZFP SBS#787 (synthetic).
T14 chain: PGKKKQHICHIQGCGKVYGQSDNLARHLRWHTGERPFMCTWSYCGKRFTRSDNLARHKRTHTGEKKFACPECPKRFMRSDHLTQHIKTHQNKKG
In outline: as §1

A further data set deals with ZFP SBS#727 (synthetic, UniProt P08047). In outline: as §1
A further data set deals with ZFP SBS#762 (synthetic, UniProt P08047). In outline: as §1
The next data set has as its target T15, ZFP SBS#761 (synthetic).
T15 chain: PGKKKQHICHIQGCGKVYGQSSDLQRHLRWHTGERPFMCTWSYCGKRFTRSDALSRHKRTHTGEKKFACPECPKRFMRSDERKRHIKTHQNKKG
The method in brief: as §1

The next data set concerns the target T16, ZFP SBS#735 (synthetic).
T16 chain: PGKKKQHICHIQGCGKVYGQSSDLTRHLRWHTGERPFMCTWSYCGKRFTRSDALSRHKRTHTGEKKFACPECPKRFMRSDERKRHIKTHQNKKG
In outline:
as §1

The target of the next data set is T17, ZFP SBS#926 (synthetic).
T17 chain: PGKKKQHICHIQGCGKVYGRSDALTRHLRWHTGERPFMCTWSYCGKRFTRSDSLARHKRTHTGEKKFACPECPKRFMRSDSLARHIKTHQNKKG
The method in brief:
as §1

Another data set has as its target T18, ZFP SBS#905 (synthetic).
T18 chain: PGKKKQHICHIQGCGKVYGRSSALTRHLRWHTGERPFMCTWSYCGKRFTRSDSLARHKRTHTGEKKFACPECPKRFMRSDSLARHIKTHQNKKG
The method in brief:
as §1

ZFP SBS#785 (synthetic), sequence (chain, as listed by the source): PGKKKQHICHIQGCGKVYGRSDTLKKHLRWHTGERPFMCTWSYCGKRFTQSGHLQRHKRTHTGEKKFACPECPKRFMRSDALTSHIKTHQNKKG
ZFP SBS#904 (synthetic), sequence (chain, as listed by the source): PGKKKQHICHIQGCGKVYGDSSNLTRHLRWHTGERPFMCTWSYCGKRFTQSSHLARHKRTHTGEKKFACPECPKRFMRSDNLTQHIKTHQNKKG
ZFP SBS#786 (synthetic), sequence (chain, as listed by the source): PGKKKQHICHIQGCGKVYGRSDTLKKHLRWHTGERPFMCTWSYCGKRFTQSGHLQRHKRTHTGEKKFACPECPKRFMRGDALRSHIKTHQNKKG
ZFP SBS#916 (synthetic), sequence (chain, as listed by the source): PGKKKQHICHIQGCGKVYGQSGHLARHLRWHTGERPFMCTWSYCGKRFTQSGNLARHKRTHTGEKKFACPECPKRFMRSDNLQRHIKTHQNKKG
ZFP SBS#921 (synthetic), sequence (chain, as listed by the source): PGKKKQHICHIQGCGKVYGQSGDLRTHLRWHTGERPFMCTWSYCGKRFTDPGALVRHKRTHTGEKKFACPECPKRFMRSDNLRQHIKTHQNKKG
ZFP SBS#909 (synthetic), sequence (chain, as listed by the source): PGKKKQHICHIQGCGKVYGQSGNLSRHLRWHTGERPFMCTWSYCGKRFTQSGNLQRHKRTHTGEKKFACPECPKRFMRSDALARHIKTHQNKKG
ZFP SBS#915 (synthetic), sequence (chain, as listed by the source): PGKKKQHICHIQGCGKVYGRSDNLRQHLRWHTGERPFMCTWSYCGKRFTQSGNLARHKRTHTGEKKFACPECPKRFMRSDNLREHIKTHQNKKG
ZFP SBS#780 (synthetic), sequence (chain, as listed by the source): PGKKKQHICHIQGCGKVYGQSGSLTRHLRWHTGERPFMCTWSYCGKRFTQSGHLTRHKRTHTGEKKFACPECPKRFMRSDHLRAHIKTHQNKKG
ZFP SBS#914 (synthetic), sequence (chain, as listed by the source): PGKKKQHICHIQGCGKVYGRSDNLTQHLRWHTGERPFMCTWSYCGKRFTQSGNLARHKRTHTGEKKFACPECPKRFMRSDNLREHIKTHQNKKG
ZFP SBS#920 (synthetic), sequence (chain, as listed by the source): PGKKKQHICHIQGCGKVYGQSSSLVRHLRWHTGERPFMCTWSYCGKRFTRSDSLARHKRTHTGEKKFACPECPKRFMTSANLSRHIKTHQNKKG
ZFP SBS#923 (synthetic), sequence (chain, as listed by the source): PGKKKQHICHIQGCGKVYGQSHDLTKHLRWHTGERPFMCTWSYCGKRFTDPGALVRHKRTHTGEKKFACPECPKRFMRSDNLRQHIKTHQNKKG
ZFP SBS#762, sequence (P08047 other isoform, or with tags, fused parts or gaps): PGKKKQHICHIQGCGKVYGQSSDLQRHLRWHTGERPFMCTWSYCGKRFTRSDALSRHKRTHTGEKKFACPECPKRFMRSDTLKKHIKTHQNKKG
ZFP SBS#727, sequence (P08047 other isoform, or with tags, fused parts or gaps): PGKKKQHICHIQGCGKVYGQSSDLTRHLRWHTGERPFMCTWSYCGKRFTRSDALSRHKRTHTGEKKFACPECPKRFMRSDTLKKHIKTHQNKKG

B1: GACGACGGC (dsDNA)
DNA 1: GACGACGGC
DNA 2: GCCGTCGTC
A word on the Kd: it is a measure of binding affinity in units of concentration. Read a low Kd as tighter binding. Turning to B1, in the data set with ZFP SBS#431, the Kd worked out at 100 nM.

B2: TTGGACGGCG (dsDNA)
DNA 1: TTGGACGGCG
DNA 2: CGCCGTCCAA
B2: the Kd was 148 nM with ZFP SBS#760, 37 nM in the data set with ZFP SBS#759, 11.3 nM in the data set with ZFP SBS#749 and 112 nM with ZFP SBS#748.

B3: ATGGACGGGT (dsDNA)
DNA 1: ATGGACGGGT
DNA 2: ACCCGTCCAT
For the molecule B3, the Kd with ZFP SBS#777 was found to be 3.4 nM; with ZFP SBS#776 it was 0.4 nM.

B4: CGGGGAGCAG (dsDNA)
DNA 1: CGGGGAGCAG
DNA 2: CTGCTCCCCG
On to B4, for which the Kd in the data set with ZFP SBS#780 and with ZFP SBS#779 was 0.5 nM each time.

B5: GAGGAAGGA (dsDNA)
DNA 1: GAGGAAGGA
DNA 2: TCCTTCCTC
In the data set with ZFP SBS#916, B5 yielded a Kd of 1.3 nM.

B6: GCGGGGTCC (dsDNA)
DNA 1: GCGGGGTCC
DNA 2: GGACCCCGC
In the case of B6, binding in the data set with ZFP SBS#256 was put at a Kd of 800 nM.

B7: TTGGGAGCGG (dsDNA)
DNA 1: TTGGGAGCGG
DNA 2: CCGCTCCCAA
B7: the results for the Kd in the data set with ZFP SBS#785, with ZFP SBS#783 and in the data set with ZFP SBS#786 were 50 nM, 2000 nM and 2000 nM, respectively.

B8: CAGGAAAAG (dsDNA)
DNA 1: CAGGAAAAG
DNA 2: CTTTTCCTG
B8: the Kd in the data set with ZFP SBS#915 was determined as 45.1 nM; with ZFP SBS#914, 1.26 nM.

B9: GAGGGAGCGA (dsDNA)
DNA 1: GAGGGAGCGA
DNA 2: TCGCTCCCTC
Consider B9, for which the results for the Kd in the data set with ZFP SBS#826, in the data set with ZFP SBS#750 and in the data set with ZFP SBS#827 were 2.75 nM, 52 nM and 1.2 nM, respectively.

B10: GTGGAAGAA (dsDNA)
DNA 1: GTGGAAGAA
DNA 2: TTCTTCCAC
Turning to B10, the Kd with ZFP SBS#909 worked out at 16.4 nM.

B11: GATGTGGTA (dsDNA)
DNA 1: GATGTGGTA
DNA 2: TACCACATC
As for B11, in the data set with ZFP SBS#920, the affinity, expressed as Kd, was 4 nM.

B12: AAGGGTGAC (dsDNA)
DNA 1: AAGGGTGAC
DNA 2: GTCACCCTT
In the case of B12, in the data set with ZFP SBS#904, the Kd is 1 nM.

B13: AAGGTCTCA (dsDNA)
DNA 1: AAGGTCTCA
DNA 2: TGAGACCTT
Consider B13, for which the Kd was determined as 11 nM in the data set with ZFP SBS#921, 4 nM with ZFP SBS#922, 2 nM with ZFP SBS#923 and 50 nM in the data set with ZFP SBS#908.

B14: TCAGAGGTG (dsDNA)
DNA 1: TCAGAGGTG
DNA 2: CACCTCTGA
The molecule B14 showed a Kd with ZFP SBS#912 of 0.135 nM.

B15: GGGGAGCAGC (dsDNA)
DNA 1: GGGGAGCAGC
DNA 2: GCTGCTCCCC
In the data set with ZFP SBS#781, B15 registered a Kd of 4.25 nM.

B16: AGGGAGGATG (dsDNA)
DNA 1: AGGGAGGATG
DNA 2: CATCCTCCCT
Molecule B16 had a Kd with ZFP SBS#787 of 4 nM.

B17: GCGGTGGCTC (dsDNA)
DNA 1: GCGGTGGCTC
DNA 2: GAGCCACCGC
Regarding B17, the Kd with ZFP SBS#727 is 0.1 nM; with ZFP SBS#762, 18 nM; in the data set with ZFP SBS#761, 6 nM; with ZFP SBS#735 it was 0.05 nM.

B18: GTGGTGGTG (dsDNA)
DNA 1: GTGGTGGTG
DNA 2: CACCACCAC
Regarding B18, the Kd was determined as 7.5 nM in the data set with ZFP SBS#926 and 1.15 nM with ZFP SBS#905.
